Test results reported in patent US20220056104A1 (Janssen / Centocor, published 2022).

T1: Recombinant DR3-Fc (R&D Systems, cat. #943-D3) (UniProt Q93038 25-199, limits assumed)
T1 construct: dimeric MW~92 kDa; also called DR3 receptor; Fc-DR3; not shown: Fc part of the bought fusion
T1 sequence (looked up): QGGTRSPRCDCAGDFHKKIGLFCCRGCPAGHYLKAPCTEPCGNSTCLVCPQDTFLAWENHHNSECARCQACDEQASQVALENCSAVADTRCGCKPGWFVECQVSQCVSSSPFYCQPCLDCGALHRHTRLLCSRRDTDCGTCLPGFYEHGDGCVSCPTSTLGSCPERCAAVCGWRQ

T2: DcR3 (UniProt O95407 30-300, limits assumed)
T2 construct: the construct is not described; also called decoy receptor DcR3; TNFRSF6B
T2 sequence (looked up): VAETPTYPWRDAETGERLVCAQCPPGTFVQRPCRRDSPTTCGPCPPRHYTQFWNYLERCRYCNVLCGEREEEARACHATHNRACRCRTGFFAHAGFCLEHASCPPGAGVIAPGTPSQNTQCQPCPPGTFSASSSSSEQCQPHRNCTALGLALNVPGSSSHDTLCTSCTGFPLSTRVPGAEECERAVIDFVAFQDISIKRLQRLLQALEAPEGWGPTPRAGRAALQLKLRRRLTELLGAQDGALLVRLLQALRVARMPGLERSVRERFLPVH


Each binder was assayed against T1, Recombinant DR3-Fc (R&D Systems, cat. …) (assay: ELISA, DR3-Fc immobilized).
Experimental: All ELISA-based measurements were collected in triplicate, and error values report the standard error between measurements. Recombinant DR3-Fc (R&D Systems, cat. #943-D3), dimeric MW˜92 kDa, was non-specifically immobilized onto plates (Nunc maxisorp, cat. #436110) in 100 μL DR3-Fc, diluted to 10 μg/mL onto a 96-well White Maxisorp plate (Nunc, cat #436110) (O/N, 4° C.). Plates were block for 1 hour at room temperature with 250 μl/well of casein buffer and blocking buffer was removed. 50 μL of TL1A variants were diluted in StartingBlock PBS (Thermo Fisher Scientific), at 25 μg/mL, diluting 3× over each well, according to the plate map description for 20160623) per well on a 96-well White Maxisorp plate (Nunc, cat #: 436110) (overnight at 4° C.).
Plates were washed three times with TBST. 100 μl/well polyclonal rabbit anti-human TL1A-biotin antibody (diluted 1:1000 in Starting Block PBS) was added and plates were incubated for 1 hour at room temperature with shaking at 150 rpm. TL1A-biotin antibody was removed and 100 μl/well streptavidin-HRP conjugate (diluted 1:10,000 in Starting Block PBS) was added to plates. Plates were incubated for 1 hour at room temperature with shaking at 150 rpm. Plates were washed three times with TBST. 100 μl/well POD Chemiluminescence substrate (Roche, cat #: 11582950001) was added immediately prior to reading plate luminescence using a Molecular Devices M5 plate reader with a delay setting of 100 ms.
Variants of TL1A were generated and tested for binding to DR3 and DcR3 by ELISA as described.

Row | Binder | EC50 [µM] | Rel EC50
1 | TL1W24 (His-TEV-hTL1A 72-251 F209A) (ligand, also called TL1W24 (F209A)) HHHHHHENLYFQGLKGQEFAPSHQQVYAPLRADGDKPRAHLTVVRQTPTQHFKNQFPALHWEHELGLAFTKNRMNYTNKFLLIPESGDYFIYSQVTFRGMTSECSEIRQAGRPNKPDSITVVITKVTDSYPEPTQLLMGTKSVCEVGSNWAQPIYLGAMFSLQEGDKLMVNVSDISLVDYTKEDKTFFGAFLL | 0.281 | 10.7 ratio (head: nM)
2 | TL1W46 (His-TEV-TL1A T239W) (ligand, also called TL1W46 (T239W)) HHHHHHENLYFQGLKGQEFAPSHQQVYAPLRADGDKPRAHLTVVRQTPTQHFKNQFPALHWEHELGLAFTKNRMNYTNKFLLIPESGDYFIYSQVTFRGMTSECSEIRQAGRPNKPDSITVVITKVTDSYPEPTQLLMGTKSVCEVGSNWFQPIYLGAMFSLQEGDKLMVNVSDISLVDYWKEDKTFFGAFLL | 0.284 | 10.8 ratio (head: nM)

Further lines, results first:

Row | EC50 [µM] | Rel EC50 | Binder
3 | 0.0148 | 0.6 ratio (head: nM) | TL1W87 (His-TEV-TL1A G124D) (ligand, also called TL1W87 (G124D)) HHHHHHENLYFQGLKGQEFAPSHQQVYAPLRADGDKPRAHLTVVRQTPTQHFKNQFPALHWEHELDLAFTKNRMNYTNKFLLIPESGDYFIYSQVTFRGMTSECSEIRQAGRPNKPDSITVVITKVTDSYPEPTQLLMGTKSVCEVGSNWFQPIYLGAMFSLQEGDKLMVNVSDISLVDYTKEDKTFFGAFLL
4 | 0.0391 | 1.5 ratio (head: nM) | TL1W108 (His-TEV-TL1A S187A) (ligand, also called TL1W108 (S187A)) HHHHHHENLYFQGLKGQEFAPSHQQVYAPLRADGDKPRAHLTVVRQTPTQHFKNQFPALHWEHELGLAFTKNRMNYTNKFLLIPESGDYFIYSQVTFRGMTSECSEIRQAGRPNKPDSITVVITKVTDAYPEPTQLLMGTKSVCEVGSNWFQPIYLGAMFSLQEGDKLMVNVSDISLVDYTKEDKTFFGAFLL

The binders below were run against T2, DcR3 (assay: ELISA, DcR3).

Row | Binder | EC50 [µM] | Rel EC50
5 | TL1W24 (His-TEV-hTL1A 72-251 F209A) (ligand, also called TL1W24 (F209A)) HHHHHHENLYFQGLKGQEFAPSHQQVYAPLRADGDKPRAHLTVVRQTPTQHFKNQFPALHWEHELGLAFTKNRMNYTNKFLLIPESGDYFIYSQVTFRGMTSECSEIRQAGRPNKPDSITVVITKVTDSYPEPTQLLMGTKSVCEVGSNWAQPIYLGAMFSLQEGDKLMVNVSDISLVDYTKEDKTFFGAFLL | 0.0307 | 6.7 ratio (head: nM)
6 | TL1W139 (His-TEV-TL1A E241Q) (ligand, also called TL1W139 (E241Q)) HHHHHHENLYFQGLKGQEFAPSHQQVYAPLRADGDKPRAHLTVVRQTPTQHFKNQFPALHWEHELGLAFTKNRMNYTNKFLLIPESGDYFIYSQVTFRGMTSECSEIRQAGRPNKPDSITVVITKVTDSYPEPTQLLMGTKSVCEVGSNWFQPIYLGAMFSLQEGDKLMVNVSDISLVDYTKQDKTFFGAFLL | 0.0173 | 3.8 ratio (head: nM)
7 | TL1W27 (His-TEV-hTL1A 72-251 T239E) (ligand, also called TL1W27 (T239E)) HHHHHHENLYFQGLKGQEFAPSHQQVYAPLRADGDKPRAHLTVVRQTPTQHFKNQFPALHWEHELGLAFTKNRMNYTNKFLLIPESGDYFIYSQVTFRGMTSECSEIRQAGRPNKPDSITVVITKVTDSYPEPTQLLMGTKSVCEVGSNWFQPIYLGAMFSLQEGDKLMVNVSDISLVDYEKEDKTFFGAFLL | 0.0343 | 7.5 ratio (head: nM)
8 | TL1W86 (His-TEV-TL1A G124K) (ligand, also called TL1W86 (G124K)) HHHHHHENLYFQGLKGQEFAPSHQQVYAPLRADGDKPRAHLTVVRQTPTQHFKNQFPALHWEHELKLAFTKNRMNYTNKFLLIPESGDYFIYSQVTFRGMTSECSEIRQAGRPNKPDSITVVITKVTDSYPEPTQLLMGTKSVCEVGSNWFQPIYLGAMFSLQEGDKLMVNVSDISLVDYTKEDKTFFGAFLL | 0.0029 | 0.6 ratio (head: nM)
9 | TL1W138 (His-TEV-TL1A K240D) (ligand, also called TL1W138 (K240D)) HHHHHHENLYFQGLKGQEFAPSHQQVYAPLRADGDKPRAHLTVVRQTPTQHFKNQFPALHWEHELGLAFTKNRMNYTNKFLLIPESGDYFIYSQVTFRGMTSECSEIRQAGRPNKPDSITVVITKVTDSYPEPTQLLMGTKSVCEVGSNWFQPIYLGAMFSLQEGDKLMVNVSDISLVDYTDEDKTFFGAFLL | 0.0595 | 12.9 ratio (head: nM)
10 | TL1W133 (His-TEV-TL1A T239F) (ligand, also called TL1W133 (T239F)) HHHHHHENLYFQGLKGQEFAPSHQQVYAPLRADGDKPRAHLTVVRQTPTQHFKNQFPALHWEHELGLAFTKNRMNYTNKFLLIPESGDYFIYSQVTFRGMTSECSEIRQAGRPNKPDSITVVITKVTDSYPEPTQLLMGTKSVCEVGSNWFQPIYLGAMFSLQEGDKLMVNVSDISLVDYFKEDKTFFGAFLL | 0.0108 | 2.3 ratio (head: nM)
11 | TL1W33 (E241L) (ligand, no entry of the listing holds E241L; also called E241L variant of His-TL1A) HHHHHHENLYFQGLKGQEFAPSHQQVYAPLRADGDKPRAHLTVVRQTPTQHFKNQFPALHWEHELGLAFTKNRMNYTNKFLLIPESGDYFIYSQVTFRGMTSECSEIRQAGRPNKPDSITVVITKVTDSYPEPTQLLMGTKSVCEVGSNWFQPIYLGAMFSLQEGDKLMVNVSDISLVDYTKLDKTFFGAFLL | 0.0057 | 1.2 ratio (head: nM)
12 | TL1W83 (His-TEV-TL1A E120K) (ligand, also called TL1W83 (E120K)) HHHHHHENLYFQGLKGQEFAPSHQQVYAPLRADGDKPRAHLTVVRQTPTQHFKNQFPALHWKHELGLAFTKNRMNYTNKFLLIPESGDYFIYSQVTFRGMTSECSEIRQAGRPNKPDSITVVITKVTDSYPEPTQLLMGTKSVCEVGSNWFQPIYLGAMFSLQEGDKLMVNVSDISLVDYTKEDKTFFGAFLL | 0.0022 | 0.5 ratio (head: nM)
13 | TL1W128 (His-TEV-TL1A Y238S) (ligand, also called TL1W128 (Y238S)) HHHHHHENLYFQGLKGQEFAPSHQQVYAPLRADGDKPRAHLTVVRQTPTQHFKNQFPALHWEHELGLAFTKNRMNYTNKFLLIPESGDYFIYSQVTFRGMTSECSEIRQAGRPNKPDSITVVITKVTDSYPEPTQLLMGTKSVCEVGSNWFQPIYLGAMFSLQEGDKLMVNVSDISLVDSTKEDKTFFGAFLL | 0.0105 | 2.3 ratio (head: nM)
14 | TL1W130 (His-TEV-TL1A Y238R) (ligand, also called TL1W130 (Y238R)) HHHHHHENLYFQGLKGQEFAPSHQQVYAPLRADGDKPRAHLTVVRQTPTQHFKNQFPALHWEHELGLAFTKNRMNYTNKFLLIPESGDYFIYSQVTFRGMTSECSEIRQAGRPNKPDSITVVITKVTDSYPEPTQLLMGTKSVCEVGSNWFQPIYLGAMFSLQEGDKLMVNVSDISLVDRTKEDKTFFGAFLL | 0.0169 | 3.7 ratio (head: nM)
15 | TL1W88 (His-TEV-TL1A R156A) (ligand, also called TL1W88 (R156A)) HHHHHHENLYFQGLKGQEFAPSHQQVYAPLRADGDKPRAHLTVVRQTPTQHFKNQFPALHWEHELGLAFTKNRMNYTNKFLLIPESGDYFIYSQVTFAGMTSECSEIRQAGRPNKPDSITVVITKVTDSYPEPTQLLMGTKSVCEVGSNWFQPIYLGAMFSLQEGDKLMVNVSDISLVDYTKEDKTFFGAFLL | 0.0135 | 2.9 ratio (head: nM)
16 | TL1W135 (His-TEV-TL1A K240A) (ligand, also called TL1W135 (K240A)) HHHHHHENLYFQGLKGQEFAPSHQQVYAPLRADGDKPRAHLTVVRQTPTQHFKNQFPALHWEHELGLAFTKNRMNYTNKFLLIPESGDYFIYSQVTFRGMTSECSEIRQAGRPNKPDSITVVITKVTDSYPEPTQLLMGTKSVCEVGSNWFQPIYLGAMFSLQEGDKLMVNVSDISLVDYTAEDKTFFGAFLL | 0.0085 | 1.9 ratio (head: nM)

Results, then the binder that gave them:

Row | EC50 [µM] | Rel EC50 | Binder
17 | 0.008 | 1.7 ratio (head: nM) | TL1W89 (His-TEV-TL1A R156Y) (ligand, also called TL1W89 (R156Y)) HHHHHHENLYFQGLKGQEFAPSHQQVYAPLRADGDKPRAHLTVVRQTPTQHFKNQFPALHWEHELGLAFTKNRMNYTNKFLLIPESGDYFIYSQVTFYGMTSECSEIRQAGRPNKPDSITVVITKVTDSYPEPTQLLMGTKSVCEVGSNWFQPIYLGAMFSLQEGDKLMVNVSDISLVDYTKEDKTFFGAFLL
18 | 0.0083 | 1.8 ratio (head: nM) | TL1W91 (His-TEV-TL1A R156E) (ligand, also called TL1W91 (R156E)) HHHHHHENLYFQGLKGQEFAPSHQQVYAPLRADGDKPRAHLTVVRQTPTQHFKNQFPALHWEHELGLAFTKNRMNYTNKFLLIPESGDYFIYSQVTFEGMTSECSEIRQAGRPNKPDSITVVITKVTDSYPEPTQLLMGTKSVCEVGSNWFQPIYLGAMFSLQEGDKLMVNVSDISLVDYTKEDKTFFGAFLL
19 | 0.0215 | 4.7 ratio (head: nM) | TL1W134 (His-TEV-TL1A T239K) (ligand, also called TL1W134 (T239K)) HHHHHHENLYFQGLKGQEFAPSHQQVYAPLRADGDKPRAHLTVVRQTPTQHFKNQFPALHWEHELGLAFTKNRMNYTNKFLLIPESGDYFIYSQVTFRGMTSECSEIRQAGRPNKPDSITVVITKVTDSYPEPTQLLMGTKSVCEVGSNWFQPIYLGAMFSLQEGDKLMVNVSDISLVDYKKEDKTFFGAFLL
20 | 0.0204 | 4.4 ratio (head: nM) | TL1W101 (His-TEV-TL1A S176N) (ligand, also called TL1W101 (S176N)) HHHHHHENLYFQGLKGQEFAPSHQQVYAPLRADGDKPRAHLTVVRQTPTQHFKNQFPALHWEHELGLAFTKNRMNYTNKFLLIPESGDYFIYSQVTFRGMTSECSEIRQAGRPNKPDNITVVITKVTDSYPEPTQLLMGTKSVCEVGSNWFQPIYLGAMFSLQEGDKLMVNVSDISLVDYTKEDKTFFGAFLL
